Assay results published in PMC6888414, “Two Homologous Enzymes of the GalU Family in Rhodococcus opacus 1CP—RoGalU1 and RoGalU2” (International Journal of Molecular Sciences, 2019).

B1: RoGalU2 (Rhodococcus opacus) (protein)
chain: MTDAAPHTASAFRTAVVPAAGMGTRFLPATKTVPKELLPVVDTPGIELVAGEAADSGAGRLVIVTSPGKDGVVAHFVEDLVLESKLEASGKYHLLEKVRKAPGLLEVESVIQDEPLGLGHAVGCAESVLDDDEDAIAVLLPDDLVMPRGVLETMSRVRRKRGGTVLCAIDVPKDQVSAYGVFEVETVPDATNPDVLKVIGMVEKPAIEDAPSTFAAAGRYLLDRAIFDALRRIEPGAGGELQLTDAIALLIKEGHPVHVVVHRGTRHDLGNPGGYLRAAVDFALDMEEYGPSLREWLIDRLKRTDS
notes: full length, N-terminal His10 tag (pET16bP), codon-optimized gene in E. coli BL21(DE3) pLysS, HisTrap purified; 34 kDa subunit, hexamer by SEC (188 kDa)

How the values were obtained:
[1] = target: UDP-glucose pyrophosphorylase RoGalU2 of Rhodococcus opacus 1CP (Rhodococcus opacus 1CP); test: SEC; Superdex 200 10/300 GL, non-denaturing, 50 mM Hepes pH 7.0, 1 mM magnesium chloride; RoGalU2 at 0.2 and 2.0 mg/mL, in duplicates; mass from a calibration with standard proteins
[2] = substrate: O=P(O)(O)O[C@H]1O[C@H](CO)[C@@H](O)[C@H](O)[C@H]1O; test: HPLC of UDP-glucose formation, initial rates; assay type: biochemical, Rhodococcus opacus; settings: 1.5 mM UTP, 1 mM MgCl2, 50 mM Hepes pH 7.4, 42 °C, glucose 1-phosphate 0.05–10 mM, Michaelis-Menten fit of the low range only, non-Michaelis behaviour above 10 mM
Excerpt: (§1) HPLC of UDP-glucose formation, initial rates on RoGalU2

[3] = substrate: O=c1ccn([C@@H]2O[C@H](COP(=O)(O)OP(=O)(O)OP(=O)(O)O)[C@@H](O)[C@H]2O)c(=O)[nH]1; test: HPLC of UDP-glucose formation, initial rates; assay type: biochemical, Rhodococcus opacus; settings: 250 mM glucose 1-phosphate, 1 mM MgCl2, 50 mM Hepes pH 7.4, 42 °C, UTP 0.01–5 mM, Yano and Koga substrate inhibition fit
Excerpt: as §1

Row | Molecule | stoichiometry N [1] | Km [2] [µM] | kcat [2] [s⁻¹] | kcat/Km [2] [M⁻¹ s⁻¹] | Km [3] [µM] | kcat [3] [s⁻¹] | kcat/Km [3] [M⁻¹ s⁻¹]
1 | UDP-glucose pyrophosphorylase RoGalU2 of Rhodococcus opacus 1CP (enzyme) | 6 |  |  |  |  |  | 
2 | B1 |  | 900 | 3.7 | 4000 | 510 | 96.2 | 190000
